Laboratory results: the supplement of paper PMC12764529
± gives the half width of the 95% confidence interval.

Assays:
[1] = folding stability dG unfold (combined trypsin and chymotrypsin); higher = more stable
Method in brief: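 Designed mini-proteins with no cysteine and under 80 residues were kept only if AlphaFold2 dimer inter-PAE was above 15. In a PA-tagged cDNA display construct, they were digested with trypsin and chymotrypsin and then sequenced. K50 was inferred by Bayesian fitting of counts, and unfolding free energy was derived per protease or combined against a sequence-predicted unfolded-state K50 and a shared folded-state K50.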

[2] = folding stability dG unfold from trypsin proteolysis; higher = more stable
Experimental: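 Folding stability of de novo designed mini-proteins (<80 aa, no Cys; designed by TrROS, TrMRF, ProteinMPNN and the joint model) was measured by cDNA display proteolysis with trypsin and chymotrypsin. Each protease was used at 11 concentrations in a threefold dilution series plus a no-protease condition. K50 was inferred by Bayesian fitting of sequencing counts, and dG unfold was derived against a sequence-predicted unfolded-state K50 (Tsuboyama et al. method). Sequences shown include variable-length N-terminal GS-type padding (SAGGSAGG...) inside a display construct carrying a PA tag. Rows were kept only if the AF2 dimer inter-PAE was >15, to exclude likely homo-oligomers.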

| Sequence | folding stability dG unfold [1] [kcal/mol] | folding stability dG unfold [2] [kcal/mol] |
| --- | --- | --- |
| SAGGSAGGSAGGAMREVPIVLPFSPEMSEEEARALIEEELKRKGDPIAKLVIDKKSPALLSAGGSAGGSAGG [r7_703_JUSTAS] | < -1 | -0.687 ± 0.45 |
| SAGGSAGGSAGGDVEVKEFTTTDPETGEEIIRVTETIPGNEKIVTTYTKDGKPISTKKILSAGGSAGGSAGG [r7_454_JUSTAS] | -0.528 ± 0.24 | -0.0907 ± 0.13 |
| SAGGSAGGSAGGGSMTLSLDTRPEDGTLVLVSTFVDPASGLVSVTTTYPDSTVTTTLPVGSAGGSAGGSAGG [r7_402_JUSTAS] | 0.528 ± 0.087 | 0.998 ± 0.049 |
| SAGGSAGGSAGGIWIPGDDIKEALKKMPPDVTKHIFNPDEGRWIMIKVNDNKIDIEPWPSAGGSAGGSAGGS [r10_137_TrROS] | -0.748 ± 0.36 | -0.392 ± 0.16 |
| SAGGSAGGSAGGKEIPLDEVKDIQPSNDKWYVVFPGKPQRFPPDDIPIPPGKPIRIYPLSAGGSAGGSAGGS [r10_665_TrROS] | -0.154 ± 0.24 | 0.338 ± 0.058 |
| SAGGSAGGSAGGKGWPTVEIPMPENGKPTPDSIEEIAEKFNMPNVEVEQSDDWHKIDVDSAGGSAGGSAGGS [r10_642_TrROS] | -0.295 ± 0.32 | 0.92 ± 0.047 |
| SAGGSAGGSAGGKLVKVTFRTPGGGTLTVEVPPTESLTLPYGDKPILVDVKEDEVVFRDESAGGSAGGSAGG [r7_510_TrMRF] | -0.891 ± 0.44 | -0.572 ± 0.18 |
| SAGGSAGGSAGGKPIYILAEHPSNGKVVLLPVDSPEKAIEFAKALADVPDFKIAHVDAFGSAGGSAGGSAGG [r11_951_TrMRF] | -0.287 ± 0.22 | 0.341 ± 0.052 |
| SAGGSAGGSAGGLADLLKGKTFTVTFPEGDKPYPATFEPTADDTVRVGFPDGDSYPVPAAYQSAGGSAGGSA [r18_169_TrMRF] | < -1 | -0.466 ± 0.2 |
| SAGGSAGGSAGGLKIQRFPDGNWYRIYLPNGNEHHIPMDEPIKVPNAKEPVKIEPVPPDDSAGGSAGGSAGG [r7_968_TrROS] | -0.961 ± 0.41 | -0.936 ± 0.28 |
| SAGGSAGGSAGGMITKVTVTYLPGGEVSLTITDENGTPSEKTLSLAELKKYPDIPLELDPSAGGSAGGSAGG [r7_238_JUSTAS] | -0.374 ± 0.088 | 0.174 ± 0.05 |
| SAGGSAGGSAGGMKVEVVDITGPPDLSPDATTTTKHPNGVTSTTTMTDPATRTSTIYTPESAGGSAGGSAGG [r11_362_JUSTAS] | < -1 | -0.899 ± 0.83 |
| SAGGSAGGSAGGMKVSVSLDILETEVSPDGTVTATYKDESGEIRTITKYVEVKLKPGLASAGGSAGGSAGGS [r10_281_JUSTAS] | -0.237 ± 0.19 | -0.148 ± 0.067 |
| SAGGSAGGSAGGMTEYVPGEGKVLVTYPDGTTKVVPVDPATPEEFRAELEAAGVPEIKPLSAGGSAGGSAGG [r7_139_JUSTAS] | 0.198 ± 0.085 | 0.762 ± 0.027 |
| SAGGSAGGSAGGMTTITVKDKTKEEIEKELAEKYNVKKVTVTPIEGNSVKVEVEIEPLGSAGGSAGGSAGGS [r10_1219_JUSTAS] | -0.948 ± 0.46 | -0.216 ± 0.19 |
| SAGGSAGGSAGGPEYIQINIKIYDPDNPKEREIPISMPVEEIEKIAKEFMPPGYRVEIISAGGSAGGSAGGS [r10_397_TrROS] | < -1 | 0.152 ± 0.14 |
| SAGGSAGGSAGGPIKVKADKVTVEKRRNPENGKEYVELTVPGPGGTRTGRFPAEDLDKISAGGSAGGSAGGS [r10_447_TrROS] | < -1 | -0.654 ± 0.21 |
| SAGGSAGGSAGGPKIDHVMLHRNPGNGRYNVTIKLRDPNGKPKDTIMVPMNDPEKILDALSAGGSAGGSAGG [r7_484_TrROS] | -0.652 ± 0.22 | -0.0862 ± 0.06 |
| SAGGSAGGSAGGPMSNVVEEVVSVEVTNPGLPDSRFVTNPEPGVPLPVPRTVPVVIVLRASAGGSAGGSAGG [r11_257_JUSTAS] | < -1 | -0.602 ± 0.33 |
| SAGGSAGGSAGGPSDVTLLEEEVEELPNGTIKTRYTFKLPNGELAEAESTTPLEGPFHHSAGGSAGGSAGGS [r10_532_JUSTAS] | -0.463 ± 0.26 | -0.0802 ± 0.2 |
| SAGGSAGGSAGGRIRLPNMPPGHDMEIKSIKVPEPGPVKLTIEPPGSDKKQERYMPPDDISAGGSAGGSAGG [r7_342_TrROS] | < -1 | 0.0711 ± 0.23 |
